Columns and labels:
[1] = target: Bxy_22780 E350G mutant (nucleophile mutant) (Bacteroides xylanisolvens); test: crystal structure
[2] = target: Bxy_22780 wild-type (β-1,2-galactosidase from Bacteroides xylanisolvens, GH35) (Bacteroides xylanisolvens); test: crystal structure

stoichiometry N [1]	stoichiometry N [2]	Substance
4	–	Bxy_22780 E350G mutant (nucleophile mutant) (enzyme)
–	4	Bxy_22780 wild-type (β-1,2-galactosidase from Bacteroides xylanisolvens, GH35) (enzyme)

From doi:10.1101/2024.05.03.592134
